Target: chimeric LILRB2-PILRβ receptor (aa 24-458 of hLILRB2) on mouse T cell hybridoma NFAT-GFP reporter cells (human), Q8N423
Assay: cell-based or functional assay

Chain of chimeric LILRB2-PILRβ receptor (aa 24-458 of hLILRB2) on mouse T cell hybridoma NFAT-GFP reporter cells (human), Q8N423 (Q8N423 other isoform, or with tags, fused parts or gaps mutant limits assumed, form in doubt): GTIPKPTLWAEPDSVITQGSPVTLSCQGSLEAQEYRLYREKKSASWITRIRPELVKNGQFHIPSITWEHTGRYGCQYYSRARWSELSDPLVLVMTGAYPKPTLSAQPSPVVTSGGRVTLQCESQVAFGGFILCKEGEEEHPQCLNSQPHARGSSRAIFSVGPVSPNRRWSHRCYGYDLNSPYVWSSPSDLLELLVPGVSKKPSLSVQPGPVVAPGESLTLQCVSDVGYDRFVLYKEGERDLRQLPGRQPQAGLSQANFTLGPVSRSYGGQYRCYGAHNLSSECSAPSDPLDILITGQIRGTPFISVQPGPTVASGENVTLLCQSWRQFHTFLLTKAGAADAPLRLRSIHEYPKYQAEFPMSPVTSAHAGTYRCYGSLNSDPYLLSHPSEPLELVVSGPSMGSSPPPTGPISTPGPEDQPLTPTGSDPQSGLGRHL

GFP expression of LILRB2 reporter cells after 24 h with Angptl2 conditioned medium (2 µg/ml); control: mock medium: 18.9%
B1: Angptl2-FLAG, full-length human Angptl2 secreted from transfected 293T cells, Q9UKU9 23-493 (ligand, not shown: small tags and cut ends)
chain: QEDGFEGTEEGSPREFIYLNRYKRAGESQDKCTYTFIVPQQRVTGAICVNSKEPEVLLENRVHKQELELLNNELLKQKRQIETLQQLVEVDGGIVSEVKLLRKESRNMNSRVTQLYMQLLHEIIRKRDNALELSQLENRILNQTADMLQLASKYKDLEHKYQHLATLAHNQSEIIAQLEEHCQRVPSARPVPQPPPAAPPRVYQPPTYNRIINQISTNEIQSDQNLKVLPPPLPTMPTLTSLPSSTDKPSGPWRDCLQALEDGHDTSSIYLVKPENTNRLMQVWCDQRHDPGGWTVIQRRLDGSVNFFRNWETYKQGFGNIDGEYWLGLENIYWLTNQGNYKLLVTMEDWSGRKVFAEYASFRLEPESEYYKLRLGRYHGNAGDSFTWHNGKQFTTLDRDHDVYTGNCAHYQKGGWWYNACAHSNLNGVWYRGGHYRSRYQDGVYWAEFRGGSYSLKKVVMMIRPNPNTFH

Reference: patent US20170260508A1
